# Source: US20200131277A1
# Target: pY peptide GGGpYGGG
# Experiment: BLI (Octet RED384), biotinylated peptide on streptavidin sensor, Fab in solution, 1:1 fit
row,Kd [nM],Substance
1,277,4G10^4D5 (Fab)
2,1830,PY20^4D5 (Fab)
